Data published in patent publication US20080025968A1 (YEDA RESEARCH AND DEVELOPMENT, published 2008).

Key:
Assay in all cases: western blot of the p55 TNF receptor complex from Ramos cells (FIG. 6a)
p50, endogenous = target: T1, p50, endogenous (human, UniProt P19838 1-433)
T1 construct: also called NF-κB1 processed form
T1 sequence (looked up): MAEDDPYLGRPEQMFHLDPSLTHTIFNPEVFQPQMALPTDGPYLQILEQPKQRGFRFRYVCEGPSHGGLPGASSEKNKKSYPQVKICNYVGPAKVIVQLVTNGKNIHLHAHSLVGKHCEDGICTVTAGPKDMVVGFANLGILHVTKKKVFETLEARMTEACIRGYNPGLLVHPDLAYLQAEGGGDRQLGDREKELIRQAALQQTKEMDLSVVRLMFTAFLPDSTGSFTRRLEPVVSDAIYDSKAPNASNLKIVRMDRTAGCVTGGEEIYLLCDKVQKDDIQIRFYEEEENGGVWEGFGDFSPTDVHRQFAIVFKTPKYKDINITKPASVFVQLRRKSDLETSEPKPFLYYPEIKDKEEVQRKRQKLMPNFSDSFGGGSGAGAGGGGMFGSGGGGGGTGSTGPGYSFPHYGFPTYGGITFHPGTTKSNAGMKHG
Procedure: (§1) Transfections, immunoblotting and immunoprecipitations were performed as described in Example 2 and Example 3 of the Examples section. For immunoprecipitation of the CD70/CD27 ligand-receptor complexes from resting PBMC and Ramos cells, cell lysates were prepared as described for the kinase tests aforementioned and incubated for 4 hours at 4° C. with 25 μl of 50% M2-FLAG agarose beads per ml of lysate. The TNF-receptor complex was precipitated as described (Zhang et al., 2000). The signalosome from cell lysates was immunoprecipitated using a 1:1 mixture of two different antibodies against IKK1 (M-280 and H-744, Santa Cruz). Immunoprecipitation was allowed to continue for 2 hours at 4° C., using 10 μg of anti-IKKα antibodies adsorbed to 25 μl of 50% protein-A-Sepharose beads per ml of lysate.

NF-κB2/p100, endogenous = target: T2, NF-κB2/p100, endogenous (human, UniProt Q00653 1-900)
T2 construct: mature
T2 sequence (looked up): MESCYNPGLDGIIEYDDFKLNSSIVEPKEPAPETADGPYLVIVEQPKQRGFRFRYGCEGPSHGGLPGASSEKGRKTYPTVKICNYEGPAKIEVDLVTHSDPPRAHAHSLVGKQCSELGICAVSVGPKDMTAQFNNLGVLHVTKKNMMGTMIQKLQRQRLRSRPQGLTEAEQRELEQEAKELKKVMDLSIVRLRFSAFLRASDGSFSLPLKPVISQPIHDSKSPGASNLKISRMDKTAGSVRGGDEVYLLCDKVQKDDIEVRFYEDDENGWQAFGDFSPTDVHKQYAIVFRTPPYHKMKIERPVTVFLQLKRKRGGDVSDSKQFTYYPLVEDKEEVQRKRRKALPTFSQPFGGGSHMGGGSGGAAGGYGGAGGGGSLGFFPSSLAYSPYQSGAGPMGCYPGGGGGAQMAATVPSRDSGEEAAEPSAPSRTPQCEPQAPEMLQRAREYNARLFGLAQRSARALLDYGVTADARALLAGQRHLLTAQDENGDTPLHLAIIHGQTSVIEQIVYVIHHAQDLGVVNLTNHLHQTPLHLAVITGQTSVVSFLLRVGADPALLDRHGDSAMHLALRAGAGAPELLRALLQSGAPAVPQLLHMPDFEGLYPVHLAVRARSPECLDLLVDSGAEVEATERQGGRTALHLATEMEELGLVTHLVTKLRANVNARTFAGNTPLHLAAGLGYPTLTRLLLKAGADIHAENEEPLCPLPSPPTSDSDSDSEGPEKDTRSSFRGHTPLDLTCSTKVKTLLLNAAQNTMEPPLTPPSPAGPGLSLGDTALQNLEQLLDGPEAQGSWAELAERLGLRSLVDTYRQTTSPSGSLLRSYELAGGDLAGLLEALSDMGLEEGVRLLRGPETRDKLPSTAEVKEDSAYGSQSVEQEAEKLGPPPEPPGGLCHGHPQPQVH
Procedure: as §1

p65, endogenous = target: T3, p65, endogenous (human, UniProt Q04206 1-551)
T3 construct: mature; also called RelA
T3 sequence (Q04206 whole entry): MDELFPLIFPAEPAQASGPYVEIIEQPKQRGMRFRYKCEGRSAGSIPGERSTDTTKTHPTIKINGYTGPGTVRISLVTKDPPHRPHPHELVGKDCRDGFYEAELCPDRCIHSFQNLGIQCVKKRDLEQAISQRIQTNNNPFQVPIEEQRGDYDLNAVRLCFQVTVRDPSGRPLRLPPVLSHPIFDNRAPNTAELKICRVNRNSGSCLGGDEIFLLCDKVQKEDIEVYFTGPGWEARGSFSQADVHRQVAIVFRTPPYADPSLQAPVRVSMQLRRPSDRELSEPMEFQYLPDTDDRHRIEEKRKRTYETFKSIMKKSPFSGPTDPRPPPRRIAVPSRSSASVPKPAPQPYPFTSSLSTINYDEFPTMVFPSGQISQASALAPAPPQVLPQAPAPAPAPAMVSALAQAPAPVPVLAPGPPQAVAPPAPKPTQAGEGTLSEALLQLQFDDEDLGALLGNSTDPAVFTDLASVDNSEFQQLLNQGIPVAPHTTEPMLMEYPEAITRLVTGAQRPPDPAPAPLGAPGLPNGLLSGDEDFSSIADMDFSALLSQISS
Procedure: as §1

Measured: binding result

B1: p55 TNF receptor, endogenous in Ramos cells (receptor, human, UniProt P19438 30-455, looked up)
chain: LVPHLGDREKRDSVCPQGKYIHPQNNSICCTKCHKGTYLYNDCPGPGQDTDCRECESGSFTASENHLRHCLSCSKCRKEMGQVEISSCTVDRDTVCGCRKNQYRHYWSENLFQCFNCSLCLNGTVHLSCQEKQNTVCTCHAGFFLRENECVSCSNCKKSLECTKLCLPQIENVKGTEDSGTTVLLPLVIFFGLCLLSLLFIGLMYRYQRWKSKLYSIVCGKSTPEKEGELEGTTTKPLAPNPSFSPTPGFTPTLGFSPVPSSTFTSSSTYTPGDCPNFAAPRREVAPPYQGADPILATALASDPIPNPLQKWEDSAHKPQSLDTDDPATLYAVVENVPPLRWKEFVRRLGLSDHEIDRLELQNGRCLREAQYSMLATWRRRTPRREATLELLGRVLRDMDLLGCLEDIEEALCGPAALPPAPSLLR
notes: whole, on cells; TNF-receptor complex precipitated as described by Zhang et al., 2000
binds: p50, endogenous | NF-κB2/p100, endogenous | p65, endogenous
